Test results: patent US20130011380A1 (published 2013)

Key:
Experiment in all cases: anti-Flag IP-MS, mES nuclear extract
Lmo7 = Lmo7 (mouse, UniProt E9PYF4 24-1649)
Source text: (§1) Mass spectrometry was used to identify the potential interactors of AID and understand the functional molecular players that orchestrate mammalian DNA demethylation. The following AID constructs were used: 1) human AID containing two tandem Flag tags at the N-terminus of the protein, cloned into the pHAGE-STEMCCA lentiviral vector, and 2) human AID containing two tandem Flag tags at the C-terminus of the protein, cloned into the pHAGE-STEMCCA lentiviral vector. Virus containing these constructs was subsequently used to infect mouse embryonic stem cells (CGR8), and stable cell lines overexpressing Flag-human AID were selected. As a control, the lentiviral vector containing only the 2× Flag tag was used.
(§2) The stable ES cell lines expressing AID and Control 2× Flag were fractionated into cytoplasmic and nuclear extracts for immunoprecipitating the AID protein using an antibody against the Flag tag. The resulting complex was subjected to mass spectrometric analyses.
(§3) TABLE 5 After immunoprecipitation, AID and the interacting proteins were identified by mass spectrometry (MS). All proteins were subjected to trypsin digestion to break them down into smaller peptides, and run through a mass spectrometer. Column C indicates the number of unique peptides of a particular protein detected by MS analysis, to be associated with the AID-Flag protein. Column D represents the number of peptides associated with the Flag only protein. The higher the number of unique peptides (>3) that are associated with AID, but not with the Flag protein, the stronger the indication of the specificity of the interaction. Columns E and F represent the associated spectra i.e. the frequency of these peptides detected in association with the AID protein as a measure of the abundance of the associated protein.

Tmpo = Tmpo (mouse)
Source text: as §1, §2, §3

Tip2 = target: T1, Tip2 (mouse)
T1 construct: Gene name as printed; possibly a misprint, not resolved
Source text: as §1, §2, §3

Lmo7, sequence (E9PYF4 entry or part of it): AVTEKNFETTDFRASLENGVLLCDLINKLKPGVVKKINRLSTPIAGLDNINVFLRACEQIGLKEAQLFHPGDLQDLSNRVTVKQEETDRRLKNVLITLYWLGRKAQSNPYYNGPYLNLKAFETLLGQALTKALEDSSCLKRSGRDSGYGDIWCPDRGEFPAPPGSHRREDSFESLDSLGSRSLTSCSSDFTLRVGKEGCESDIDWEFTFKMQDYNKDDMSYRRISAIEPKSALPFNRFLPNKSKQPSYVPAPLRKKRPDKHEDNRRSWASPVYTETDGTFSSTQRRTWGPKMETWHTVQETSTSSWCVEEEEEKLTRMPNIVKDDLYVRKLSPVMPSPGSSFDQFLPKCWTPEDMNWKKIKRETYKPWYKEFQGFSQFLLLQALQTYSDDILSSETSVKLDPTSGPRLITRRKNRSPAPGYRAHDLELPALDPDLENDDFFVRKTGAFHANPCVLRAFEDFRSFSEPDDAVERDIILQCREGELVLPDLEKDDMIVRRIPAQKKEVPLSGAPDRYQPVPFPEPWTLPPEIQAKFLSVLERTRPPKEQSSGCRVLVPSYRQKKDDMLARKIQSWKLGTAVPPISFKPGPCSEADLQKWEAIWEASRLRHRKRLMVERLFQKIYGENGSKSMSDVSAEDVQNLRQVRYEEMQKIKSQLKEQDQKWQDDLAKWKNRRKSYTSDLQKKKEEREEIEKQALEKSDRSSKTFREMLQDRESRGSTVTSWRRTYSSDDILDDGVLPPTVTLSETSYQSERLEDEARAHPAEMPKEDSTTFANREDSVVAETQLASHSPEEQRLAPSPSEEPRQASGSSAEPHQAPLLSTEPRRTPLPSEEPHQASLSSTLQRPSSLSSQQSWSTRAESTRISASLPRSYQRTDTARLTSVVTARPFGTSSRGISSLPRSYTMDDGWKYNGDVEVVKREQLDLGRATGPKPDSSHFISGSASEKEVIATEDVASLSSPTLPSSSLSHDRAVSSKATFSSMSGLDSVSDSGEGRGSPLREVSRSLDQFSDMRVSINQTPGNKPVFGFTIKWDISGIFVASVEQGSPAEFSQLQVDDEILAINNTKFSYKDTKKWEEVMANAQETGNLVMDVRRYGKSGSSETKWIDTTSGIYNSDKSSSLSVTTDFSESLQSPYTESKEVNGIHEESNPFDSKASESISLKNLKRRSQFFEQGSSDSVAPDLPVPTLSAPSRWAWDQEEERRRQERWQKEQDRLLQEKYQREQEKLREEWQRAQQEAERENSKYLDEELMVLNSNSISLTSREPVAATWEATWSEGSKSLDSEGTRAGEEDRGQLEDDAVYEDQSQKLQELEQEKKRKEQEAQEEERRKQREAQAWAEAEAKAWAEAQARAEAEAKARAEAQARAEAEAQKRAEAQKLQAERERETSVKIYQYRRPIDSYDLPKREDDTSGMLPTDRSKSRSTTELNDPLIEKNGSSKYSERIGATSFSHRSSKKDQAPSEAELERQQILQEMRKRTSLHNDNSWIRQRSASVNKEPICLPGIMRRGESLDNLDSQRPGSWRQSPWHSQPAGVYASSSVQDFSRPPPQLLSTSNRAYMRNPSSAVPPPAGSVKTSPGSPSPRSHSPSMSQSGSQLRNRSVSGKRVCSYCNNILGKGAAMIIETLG
T1 sequence (Q9Z0U1 whole entry): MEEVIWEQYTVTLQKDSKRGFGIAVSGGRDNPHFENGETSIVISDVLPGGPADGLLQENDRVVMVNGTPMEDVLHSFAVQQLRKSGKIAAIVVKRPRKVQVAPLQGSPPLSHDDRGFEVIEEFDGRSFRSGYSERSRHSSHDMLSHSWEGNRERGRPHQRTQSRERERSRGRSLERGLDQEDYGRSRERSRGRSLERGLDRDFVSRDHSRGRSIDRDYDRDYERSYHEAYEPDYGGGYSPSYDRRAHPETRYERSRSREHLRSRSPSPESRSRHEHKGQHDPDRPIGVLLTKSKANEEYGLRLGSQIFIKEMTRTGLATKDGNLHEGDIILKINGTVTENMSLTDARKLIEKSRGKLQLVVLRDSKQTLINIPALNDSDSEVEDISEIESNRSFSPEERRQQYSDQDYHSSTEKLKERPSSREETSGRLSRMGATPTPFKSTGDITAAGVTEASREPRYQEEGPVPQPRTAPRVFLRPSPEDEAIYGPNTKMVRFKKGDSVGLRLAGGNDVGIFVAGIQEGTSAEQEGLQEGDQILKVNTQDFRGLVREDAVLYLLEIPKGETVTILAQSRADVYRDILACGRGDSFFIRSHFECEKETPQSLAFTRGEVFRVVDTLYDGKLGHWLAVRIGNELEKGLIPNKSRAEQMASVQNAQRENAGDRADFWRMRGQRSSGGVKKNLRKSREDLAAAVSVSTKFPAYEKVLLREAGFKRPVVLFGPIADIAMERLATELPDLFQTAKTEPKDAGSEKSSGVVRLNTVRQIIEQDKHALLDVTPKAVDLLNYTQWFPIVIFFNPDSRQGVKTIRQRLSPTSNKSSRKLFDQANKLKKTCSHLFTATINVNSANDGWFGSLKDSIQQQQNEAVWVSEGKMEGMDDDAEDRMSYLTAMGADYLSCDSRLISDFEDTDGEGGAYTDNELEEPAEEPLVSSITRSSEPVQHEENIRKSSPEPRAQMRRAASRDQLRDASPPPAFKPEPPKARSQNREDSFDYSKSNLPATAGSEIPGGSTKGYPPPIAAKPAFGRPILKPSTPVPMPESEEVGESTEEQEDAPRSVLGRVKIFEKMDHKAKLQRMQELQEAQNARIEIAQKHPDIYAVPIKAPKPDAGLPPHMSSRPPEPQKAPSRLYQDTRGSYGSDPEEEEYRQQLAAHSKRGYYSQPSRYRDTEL

B1: human AID containing two tandem Flag tags (Flag-human AID) (enzyme, UniProt Q9GZX7 1-198, looked up)
chain: MDSLLMNRRKFLYQFKNVRWAKGRRETYLCYVVKRRDSATSFSLDFGYLRNKNGCHVELLFLRYISDWDLDPGRCYRVTWFTSWSPCYDCARHVADFLRGNPNLSLRIFTARLYFCEDRKAEPEGLRRLHRAGVQIAIMTFKDYFYCWNTFVENHERTFKAWEGLHENSVRLSRQLRRILLPLYEVDDLRDAFRTLGL
notes: Stably overexpressed in mouse ES cells (CGR8) from the pHAGE-STEMCCA lentiviral vector; Two constructs (N-terminal or C-terminal 2x Flag) were made; also called AID-Flag protein; not shown: two tandem Flag tags
Nucleus peptide (Lmo7): 15 peptides | Nucleus spectra (Lmo7): 31 spectra | Nucleus peptide (Tmpo): 4 peptides | Nucleus spectra (Tmpo): 16 spectra | Nucleus peptide (Tip2): 16 peptides | Nucleus spectra (Tip2): 36 spectra
